Results taken from article PMC7062719, “Full-length human GLP-1 receptor structure without orthosteric ligands” (Nature Communications, 2020).

Molecular target: T1, Human GLP-1R (Arg24-Leu422) fragment (human, UniProt P43220)
T1 construct: GLP-1 receptor, human, residues Arg24-Leu422; N-terminal HA-FLAG-B2-HRV14-3C tags and C-terminal HPC4-HRV14-3C-10x His tags; no 3C cleavage is described; also called detergent solubilized GLP-1R; source: Sf9 insect cells, baculovirus, co-expressed with DNGαs and Gβ1γ2; solubilised in LMNG/CHS, purified as a complex (HPC4 resin, SEC); not shown: HPC4, C-terminal, kept
Experiment: SEC + other: negative stain EM; Fab7F38 added at an estimated 1:1 ratio to the HPC4-purified GLP-1R–semaglutide–Gs–Nb35 complex, SEC on Superose 6 Increase (20 mM HEPES pH 7.5, 100 mM NaCl, 2 mM MgCl2, 1 μM semaglutide, LMNG/CHS), peak fraction used for single-particle 2D class averages
Details: both partners purified

T1 sequence (P43220 24-422): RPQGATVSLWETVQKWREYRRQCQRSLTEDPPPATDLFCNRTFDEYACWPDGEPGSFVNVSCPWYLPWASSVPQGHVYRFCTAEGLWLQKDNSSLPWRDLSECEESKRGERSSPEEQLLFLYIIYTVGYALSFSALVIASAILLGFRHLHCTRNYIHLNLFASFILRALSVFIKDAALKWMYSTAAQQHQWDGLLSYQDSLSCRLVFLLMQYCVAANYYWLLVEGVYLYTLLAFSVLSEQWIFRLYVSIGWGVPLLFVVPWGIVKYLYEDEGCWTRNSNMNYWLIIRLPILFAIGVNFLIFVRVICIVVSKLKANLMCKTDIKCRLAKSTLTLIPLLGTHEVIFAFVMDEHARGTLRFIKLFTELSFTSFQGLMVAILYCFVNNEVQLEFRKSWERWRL

binding result: binds
B1: Fab7F38 (Fab, V domains shown)
VH: EVQLQQSGPELVKPGASVKMSCKAPGYTFTSYVTHWVKQKPGQGLEWIGYINPYNDSPKYNEKYKAKATLTSDKSSSTVYMELSSLTSEDSAVYYCARIGYFRYDEGGNYALDYWGQGTSVTVSS
VL: QIVLTQSPAIMSASPGEKVTISCSASSSVSYMYWYQQKPGSSPKPWIYRTSKLASGVPVRFSGSGSGTSYSLTISNMEAEDAATYYCQQFHTYPWTFGGGTKLEIK
notes: source: ExpiCHO-S cells, transient transfection, purified (Protein G Sepharose, SEC Superdex 75)
